Measured values from article doi:10.1101/2020.07.24.212647 (bioRxiv, 2020).

Biological target: the molecule itself
Assay: crystal structure

B1: M. tuberculosis E2b catalytic domain (MtE2b_CD) (domain or fragment)
chain: PDVRPVHGVHARMAEKMTLSHKEIPTAKASVEVICAELLRLRDRFVSAAPEITPFALTLRLLVIALKHNVILNSTWVDSGEGPQVHVHRGVHLGFGAATERGLLVPVVTDAQDKNTRELASRVAELITGAREGTLTPAELRGSTFTVSNFGALGVDDGVPVINHPEAAILGLGAIKPRPVVVGGEVVARPTMTLTCVFDHRVVDGAQVAQFMCELRDLIESPETALLDL
B1 was tested, and the “stoichiometry N” value was 24.
